Measured values as given in paper PMC5849677, “A novel C3d-containing oligomeric vaccine provides insight into the viability of testing human C3d-based vaccines in mice” (Immunobiology, 2018).

How the values were obtained:
[1] = target: T1, mC3d-Fc (mouse, UniProt P01027 1002-1303); test: SPR; Biacore; hC3d or C3d(g)-Fc fusions immobilised by amine coupling (94.3-96.2 RU); Fc-fusion analytes 0.195-50 nM in HBS-EP+, physiological salt, 360 s injection; steady state affinity model; apparent KD; details: both partners purified
T1 construct: mouse complement C3, C3d fragment

[2] = target: T2, hC3dg (aa 955-1303)-Fc (human, UniProt P01024 955-1303); test: as above; details: both partners purified
T2 construct: human complement C3, C3dg fragment, aa 955-1303 (of pre-pro C3); also called hC3dg-Fc; hC3d with the g fragment attached
T2 sequence (P01024 955-1303): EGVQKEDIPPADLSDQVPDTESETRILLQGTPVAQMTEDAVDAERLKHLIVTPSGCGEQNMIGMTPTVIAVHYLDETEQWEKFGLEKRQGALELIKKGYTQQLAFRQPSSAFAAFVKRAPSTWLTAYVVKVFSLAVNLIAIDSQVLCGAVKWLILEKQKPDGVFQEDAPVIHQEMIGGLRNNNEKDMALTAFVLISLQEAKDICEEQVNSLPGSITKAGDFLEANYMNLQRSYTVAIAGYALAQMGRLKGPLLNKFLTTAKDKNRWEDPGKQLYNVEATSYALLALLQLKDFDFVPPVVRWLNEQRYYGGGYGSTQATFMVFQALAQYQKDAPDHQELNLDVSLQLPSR

T1 sequence (P01027 1002-1303): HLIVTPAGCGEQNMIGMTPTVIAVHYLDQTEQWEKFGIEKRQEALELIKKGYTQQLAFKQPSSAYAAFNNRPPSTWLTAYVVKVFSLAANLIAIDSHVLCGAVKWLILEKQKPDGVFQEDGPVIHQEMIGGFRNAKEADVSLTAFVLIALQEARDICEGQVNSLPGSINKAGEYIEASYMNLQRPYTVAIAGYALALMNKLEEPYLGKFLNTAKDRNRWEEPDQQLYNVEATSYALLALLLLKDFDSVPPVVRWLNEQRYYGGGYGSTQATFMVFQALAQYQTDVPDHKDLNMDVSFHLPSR

B1: hCR2 (SCR1-4)-Fc (Fc fusion)
chain: ISCGSPPPILNGRISYYSTPIAVGTVIRYSCSGTFRLIGEKSLLCITKDKVDGTWDKPAPKCEYFNKYSSCPEPIVPGGYKIRGSTPYRHGDSVTFACKTNFSMNGNKSVWCQANNMWGPTRLPTCVSVFPLECPALPMIHNGHHTSENVGSIAPGLSVTYSCESGYLLVGEKIINCLSSGKWSAVPPTCEEARCKSLGRFPNGKVKEPPILRVGVTANFFCDEGYRLQGPPSSRCVIAGQGVAWTKMPVCEE
notes: human complement receptor 2, short consensus repeats 1-4; also called hCR2-Fc; soluble hCR2; source: CHO cells, transfected, purified from tissue culture supernatant
[1]
  Kd: 1.47 ± 0.47 nM
  fold higher affinity than for hC3d-Fc: 4 fold
[2]
  Kd: 3.1 to 5.1 nM
